US11278600B2, “Human alpha-galactosidase variants” (Codexis, Inc., priority 2014, dated 2022)
Positions count from the first letter of the chain named. Names may count otherwise.

B1: SP-GLA: 19 amino acid S. cerevisae MFalpha signal peptide fused to the mature form of yeast-optimized GLA (protein)
chain: MRFPSIFTAVLFAASSALALDNGLARTPTMGWLHWERFMCNLDCQEEPDSCISEKLFMEMAELMVSEGWKDAGYEYLCIDDCWMAPQRDSEGRLQADPQRFPHGIRQLANYVHSKGLKLGIYADVGNKTCAGFPGSFGYYDIDAQTFADWGVDLLKFDGCYCDSLENLADGYKHMSLALNRTGRSIVYSCEWPLYMWPFQKPNYTEIRQYCNHWRNFADIDDSWKSIKSILDWTSFNQERIVDVAGPGGWNDPDMLVIGNFGLSWNQQVTQMALWAIMAAPLFMSNDLRHISPQAKALLQDKDVIAINQDPLGKQGYQLRQGDNFEVWERPLSGLAWAVAMINRQEIGGPRSYTIAVASLGKGVACNPACFITQLLPVKRKLGFYEWTSRLRSHINPTGTVLLQLENTMQMSLKDLL
modifications: Synthetic Polynucleotide sequence of SP-GLA (yCDS)
notes: 19 amino acid S. cerevisae MFalpha signal peptide fused to the mature form of yeast-optimized GLA
B2: Variant 73: GLA variant; K206A relative to SEQ ID NO: 5 (protein)
chain: LDNGLARTPTMGWLHWERFMCNLDCQEEPDSCISEKLFMEMAELMVSEGWKDAGYEYLCIDDCWMAPQRDSEGRLQADPQRFPHGIRQLANYVHSKGLKLGIYADVGNKTCAGFPGSFGYYDIDAQTFADWGVDLLKFDGCYCDSLENLADGYKHMSLALNRTGRSIVYSCEWPLYMWPFQKPNYTEIRQYCNHWRNFADIDDSWASIKSILDWTSFNQERIVDVAGPGGWNDPDMLVIGNFGLSWNQQVTQMALWAIMAAPLFMSNDLRHISPQAKALLQDKDVIAINQDPLGKQGYQLRQGDNFEVWERPLSGLAWAVAMINRQEIGGPRSYTIAVASLGKGVACNPACFITQLLPVKRKLGFYEWTSRLRSHINPTGTVLLQLENTMQMSLKDLL
modifications: Synthetic Polypeptide sequence of Variant No. 73
B3: 297 (protein)
chain: B2 chain with F217R, G230V, N247D, Q302K, M322I, E367N, T369S, R373K
modifications: Synthetic Polypeptide sequence of Variant No. 297 of mature Human GLA
B4: 298 (protein)
chain: B2 chain with F217R, N247D, L316D, M322I, A337P, A350G, K362Q, E367N, R373K
modifications: Synthetic Polypeptide sequence of Variant No. 298 of mature Human GLA
B5: 299 (protein)
chain: B2 chain with F217R, N247D, Q302K, M322I, K343G, A350G, E367T, R373K, L397F
modifications: Synthetic Polypeptide sequence of Variant No. 299 of mature Human GLA

What was measured:
GLA = molecular target: T1, GLA (Homo sapiens, UniProt P06280); test: Effect of Migalastat on thermostability and activity of GLA (HEK293T supernatants); type: biochemical
T1 construct: made in house; host or cells: HEK293 / HEK293T cells, transient transfection; unpurified culture supernatant used
T1 sequence (P06280 32-429): B2 chain with A206K
Description: GLA variants were challenged at various temperatures in the presence and absence of 1 μM 1-deoxygalactonojirimycin (Migalastat) to assess their overall stability. Supernatants from mammalian cell cultures were normalized to approximately equal activities by dilution with supernatant from a non GLA expressing culture. Diluted supernatants were added to the wells of a 96-well PCR plate (Biorad, HSP-9601). The plates were sealed and incubated at 30-54° C. for 1 h using the gradient program of a thermocycler. For the assay, 20 μL, of challenged supernatant was mixed with 30 μL, of 1 M citrate buffer pH 4.3 and 50 μL, of 4 mM MUGal in McIlvaine buffer pH 4.8. The reactions were mixed briefly and incubated at 37° C. for 90 minutes, prior to quenching with 100 μL, of 1 M sodium carbonate. Hydrolysis was analyzed using a SpectraMax® M2 microplate reader monitoring fluorescence (Ex. 355 nm, Em. 448 nm).

[1] = Thermostability of purified GLA variants (Sypro Orange melting); type: physicochemical; conditions: purified enzyme 20 μg/ml in 1×PBS, 30 to 75° C. at 0.5° C./min
Description: GLA variants were purified from mammalian culture supernatant essentially as known in the art (See, Yasuda et al., Prot. Exp. Pur., 37, 499-506 [2004]). Concanavalin A resin (Sigma Aldrich) was equilibrated with 0.1 M sodium acetate, 0.1 M NaCl, 1 mM MgCl2, CaCl2, and MnCl2 pH 6.0 (Con A binding buffer). Supernatant was diluted 1:1 with binding buffer and loaded onto the column. The column was washed with 15 volumes of Concanavalin A binding buffer, and samples were eluted by the addition of Concanavalin A binding buffer including 0.9 M methyl-α-D-mannopyranoside and 0.9 M methyl-α-D-glucopyranoside. Eluted protein was concentrated and buffer exchanged three times using a Centricon® Plus-20 filtration unit with a 10 kDa molecular weight cut off (Millipore) into ThioGal binding buffer (25 mM citrate-phosphate, 0.1 M NaCl, pH 4.8). Buffer exchanged samples were loaded onto a Immobilized-D-galactose resin (Pierce) equilibrated with ThioGal binding buffer. The resin was washed with six volumes of ThioGal binding buffer and eluted with 25 mM citrate phosphate, 0.1 M NaCl, 0.1 M D-galactose, pH 5.5. […]
The thermostability of WT GLA (SEQ ID NO:5) and SEQ ID NO:42 were determined to assess their overall stability. […] The plates were heated from 30 to 75° C. at 0.5° C./min on a RT-PCR machine and Sypro Orange fluorescence was monitored. […]

[2] = Serum pharmacokinetics of purified GLA variants in rats; type: in vivo, Sprague-Dawley rats; conditions: rat, intravenous 1 mg/ml at 1 ml/kg; four hours post-administration
Description: Purified GLA variants produced as described in Example 4 were assessed for stability in the serum of live rats. WT GLA (SEQ ID NO:5) or SEQ ID NO:42 at 1 mg/ml were administered intravenously at 1 ml/kg to three naïve jugular vein cannulated Sprague-Dawley rats (7-8 weeks old) each. Prior to administration and at 5, 15, 30, 60, 120, and 240 minutes post-administration, […] was collected from each rat in an EDTA tube and centrifuged at 4° C. and 6000 rpm to generate >80 μL of serum per sample. Samples were frozen and stored on dry ice prior to analysis. For analysis, serum (10 μL) was added to 40 μL of 5 mM MUGal in McIlvaine buffer pH 4.4, and incubated at 37° C. for 1 h. Samples were quenched with 50 μL of 1 M sodium carbonate, diluted 1:100 in 1 M sodium carbonate and analyzed by fluorescence spectroscopy (Ex. 355, Em. 448). Four hours post-administration SEQ ID NO:42 retained 15.3% of maximal activity, while WT GLA retained only 0.66% (See, FIG. 9).

[3] = Optimization of signal peptide for secreted expression of GLA by S. cerevisiae; type: biochemical
Description: Two strategies for secreted GLA expression were utilized, using the yeast MFa signal peptide (MF-SP) or a longer leader sequence of 83 amino acids (MF-leader) to drive secretion of a yeast codon-optimized mature human GLA. Clones were expressed from a pYT-72 vector in S. cerevisiae strain INVSc1. Both approaches provided supernatants with measurable activity on the fluorogenic substrate 4-methylumbelliferyl α-D-galactopyranoside (4-MuGal). However, the construct with the yeast MFa signal peptide provided 3-fold higher activities and was used as the starting sequence for directed evolution.
S. cerevisiae transformed with Mfleader-GLA (SEQ ID NO:7), SP-GLA (SEQ ID NO:36) or a vector control were grown in HTP as described in Example 2. Cultures were grown for 48-120 h prior to harvest of the supernatant and analysis (n=6) as described in Example 2. FIG. 1 provides a graph showing the relative activity of different GLA constructs in S. cerevisiae after 2-5 days of culturing.

[4] = Thermostability of GLA variants expressed in HEK293T cells; type: biochemical; conditions: HEK293T supernatants; 30-54° C. for 1 h; residual MUGal activity
[5] = HTP-analysis of supernatants pretreated with acid (MUGal hydrolysis); type: biochemical; conditions: challenge at pH 4.0; activity of the variant/activity of Rd3BB (SEQ ID NO: 13); yeast culture supernatant
Method in brief: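 Fluorescence of MUGal hydrolysis (Ex. 355 nm, Em. 448 nm) is read after sodium carbonate quench. The enzyme source is INVSc1 yeast culture supernatant, first exposed to pH 3.3-4.3 McIlvaine buffer at 37° C. for 1-3 h, then reacted at pH 4.8 for 30-180 minutes.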

[6] = HTP-analysis of supernatants pretreated with bovine serum (MUGal hydrolysis); type: biochemical; conditions: activity of the variant/activity of Rd3BB (SEQ ID NO: 13), yeast culture supernatant
Method in brief: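 Yeast INVSc1 culture supernatants containing secreted GLA variants were mixed with bovine serum (20:80) and held 1 h at 37° C. Serum-treated samples then reacted with MUGal (4 mM stock) in citrate/McIlvaine buffer (pH 4.3/4.8) for 180 min at 37° C., were quenched with sodium carbonate, and read by fluorescence (Ex 355, Em 448 nm).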

[7] = HTP-analysis of yeast culture supernatants, no challenge (MUGal hydrolysis); type: biochemical; conditions: activity of the variant/activity of Rd3BB (SEQ ID NO: 13), yeast culture supernatant
Method in brief: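 GLA variants expressed in yeast INVSc1, secreted into SD-Ura broth over 66-84 h at 30° C; clarified supernatants tested without challenge. Supernatant mixed with McIlvaine buffer pH 4.8 and 2 mM MUGal (citrate/KCl, pH 4.6), 37° C for 30-180 min, carbonate-quenched, fluorescence Ex 355/Em 448 nm.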

[8] = HTP-analysis of supernatants pretreated with base (MUGal hydrolysis); type: biochemical; conditions: challenge at pH 8.2; activity of the variant/activity of Rd3BB (SEQ ID NO: 13); yeast culture supernatant
Method in brief: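 Fluorescence of released 4-MU (Ex 355 nm, Em 448 nm) after carbonate quench reports MUGal hydrolysis by GLA variants secreted from INVSc1 yeast. Before the acidic (pH 4.3-4.8) 30-180 min reaction at 37° C, supernatants had been pre-incubated at pH 7.0-9.7 for 1-18 h at 37° C.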

Molecule | Relative Activity of GLA Variants After Challenge at pH 4.0 [5] | Relative Activity of GLA Variants After Challenge with Serum [6] | Relative Activity of GLA Variants After No Challenge (NC) [7] | Relative Activity of GLA Variants After Challenge at pH 8.2 [8] | also measured
OC[C@H]1NC[C@H](O)[C@@H](O)[C@H]1O [Migalastat, 1-deoxygalactonojirimycin] | – | – | – | – | reduction of GLA activity in the Migalastat treated sample (GLA; 0.2 μM final concentration in the assay): ~60%; increase of Tm of GLA by addition of Migalastat (GLA; 1 μM Migalastat during temperature challenge): 5.5 °C
WT GLA: wild-type mature human alpha galactosidase A (GLA), polypeptide sequence of SEQ ID NO: 5 [reference compound] | – | – | – | – | melting temperature [1]: 37 °C; GLA activity retained in serum, % of maximal activity [2]: 0.66%
B1 | – | – | – | – | level of active enzyme produced in S. cerevisiae ([3]; 2-5 days of culturing, saturated after three days of growth): high level of active enzyme; supernatant activity on 4-MuGal, fold higher than MF-leader construct ([3]; S. cerevisiae INVSc1 supernatant, versus MF-leader construct): 3 fold
B2 | – | – | – | – | increase of Tm of the enzyme [4]: 2 °C
B3 | − (− = <0.5 relative activity to Rd3BB (SEQ ID NO: 13)) | − (− = <0.5 relative activity to Rd3BB (SEQ ID NO: 13)) | − (− = <0.5 relative activity to Rd3BB (SEQ ID NO: 13)) | − (− = <0.5 relative activity to Rd3BB (SEQ ID NO: 13)) | –
B4 | +++ (+++ = >2.5 relative activity over Rd3BB (SEQ ID NO: 13)) | +++ (+++ = >2.5 relative activity over Rd3BB (SEQ ID NO: 13)) | ++ (++ = >1.5 to 2.5 relative activity over Rd3BB (SEQ ID NO: 13)) | +++ (+++ = >2.5 relative activity over Rd3BB (SEQ ID NO: 13)) | –
B5 | − (− = <0.5 relative activity to Rd3BB (SEQ ID NO: 13)) | − (− = <0.5 relative activity to Rd3BB (SEQ ID NO: 13)) | + (+ = 0.5 to 1.5 relative activity over Rd3BB (SEQ ID NO: 13)) | − (− = <0.5 relative activity to Rd3BB (SEQ ID NO: 13)) | –
